Patent US20200369765A1 (INNATE PHARMA, published 2020)
Substitutions are numbered along the chain they refer to.

B1: Fab.A (Fab of mAbA) (Fab, V domains shown)
VH: QVQLQQPGAELVKPGSPVKLSCKASYFTFTSYWMHWVRQRPGQGLEWIGEINPSNGHTNYNEKFESKATLTVDRSSSTAYMQLSSLTSEDSAVFYCANGVESYDFDDALDYWGQGTSVTVSS
VL: DIQMTQTTSSLSASLGDRVTISCRASQDINNYLNWYQQKPDGTIKLLIYYTSRLHSGVPSRFSGSGSGTDYSLTINNLEQEDIATYFCQQGNTLPFTFGGGTKLEIK
B2: Fab.B (Fab of mAbB) (Fab, V domains shown)
VH: QVQLQQPGAELVKPGASVKLSCKASVYTFTSYWMHWVKQRPGQGLEWIGEINPSNGHTNYNEKFKTKAKLTVDKSSSTAYMQLSSLTSEDSAVYFCANGVETYDFDDAMDYWGQGTSVTVSS
VL: B1 VL with I44V, Y50F, N76S, N92D, L94F
B3: Fab.D (Fab of mAbD) (Fab, V domains shown)
VH: QIQLVQSGPELKKPGETVKISCKASGYTFTDYSMHWVKQAPGKGLKWMGWIITETGEPTYADDFRGRFAFSLETSANTAYLQINNLKNEDTATYFCARDFDGYWGQGTTLTVSS
VL: DILMTQSPASLSASVGETVTITCRASENIYSYLAWYQQKRGKSPQFLVYNAKTLTEGVPSRFRGSGSGTQFSLKINSLQPEDFGTYYCQHHYGFPWTFGGGTKLEIK
B4: Fab.C (Fab of mAbC) (Fab, V domains shown)
VH: QIQLVQSGPELKKPGETVKISCKASGYTFTNYEMNWVKEAPGKGLKWMGWINTYTGESTYADDFKGRFAFSLETSASTVYLQINNLKDEDVATYFCVRDDYGRSYGFAYWGQGTLVTVSA
VL: NIVLTQSPASLTVSLGQRANISCRASESVDSYGNSFMHWYQQKPGQPPKLLIYLASKLESGVPARFSGSGSRTDFTLTIDPVETDDAATYYCHQNNEDPPWTFGGGTKLEIK

How the values were obtained:
[1] = target: T1, Human Siglec-9 mutant M7 (human, UniProt Q9Y336 18-463); test: flow cytometry, HEK293T transfectants
T1 construct: Expressed on HEK293T cells; also called Mutant 7

[2] = target: T2, Human Siglec-9 mutant M8 (human, UniProt Q9Y336 18-463); test: flow cytometry, HEK293T transfectants
T2 construct: Expressed on HEK293T cells; also called Mutant 8

[3] = target: T3, Human Siglec-9 mutant M15 (human, UniProt Q9Y336 18-463); test: flow cytometry, HEK293T transfectants
T3 construct: Expressed on HEK293T cells; also called Mutant 15

[4] = target: T4, Siglec-9 Fc protein (human); test: SPR (Biacore T200), Fab over immobilized Siglec-9 Fc, 1:1 model
T4 construct: Produced in CHO cells; also called human Siglec-9 Fc
Description: SPR measurements were performed on a Biacore™ T200 apparatus (Biacore™ GE Healthcare) at 25° C. In all Biacore™ experiments HBS-EP+(Biacore™ GE Healthcare) and NaOH 10 mM served as running buffer and regeneration buffer respectively. Sensorgrams were analyzed with Biacore™ T200 Evaluation software. Human siglec-9 and -7 multimeric proteins were cloned, produced and purified at Innate Pharma.
Proteins were immobilized covalently to carboxyl groups in the dextran layer on a Sensor Chip CM5. The chip surface was activated with EDC/NHS (N-ethyl-N′-(3-dimethylaminopropyl) carbodiamide hydrochloride and N-hydroxysuccinimide (Biacore™ GE Healthcare). Proteins were diluted to 10 μg/ml in coupling buffer (10 mM acetate, pH 4.2 & 5.0) and injected until the appropriate immobilization level was reached (i.e., 600 to 2000RU). Deactivation of the remaining activated groups was performed using 100 mM ethanolamine pH 8 (Biacore™, GE Healthcare).
The affinity study was carried out according to a standard Kinetic protocol recommended by the manufacturer (Biacore™ GE Healthcare kinetic wizard). […] The entire sensorgram sets were fitted using the 1:1 kinetic binding model. Monovalent affinities and kinetic association and dissociation rate constants are shown below in Table 2 below.

[5] = target: T5, Human Siglec-9 mutant M16 (human, UniProt Q9Y336 18-463); test: flow cytometry, HEK293T transfectants; '-' indicates full loss of binding
T5 construct: Expressed on HEK293T cells; also called Mutant 16

[6] = target: T6, Human Siglec-9 mutant M11 (human, UniProt Q9Y336 18-463); test: flow cytometry, HEK293T transfectants
T6 construct: Expressed on HEK293T cells; also called Mutant 11

[7] = target: T7, Human Siglec-9 mutant M14 (human, UniProt Q9Y336 18-463); test: flow cytometry, HEK293T transfectants
T7 construct: Expressed on HEK293T cells; also called Mutant 14

[8] = target: T8, Human Siglec-9 mutant M6 (human, UniProt Q9Y336 18-463); test: flow cytometry, HEK293T transfectants; '-' indicates full loss of binding
T8 construct: Expressed on HEK293T cells; also called Mutant 6

[9] = target: T2, Human Siglec-9 mutant M8; test: as above

T3 sequence (Q9Y336 other isoform, or with tags, fused parts or gaps mutant): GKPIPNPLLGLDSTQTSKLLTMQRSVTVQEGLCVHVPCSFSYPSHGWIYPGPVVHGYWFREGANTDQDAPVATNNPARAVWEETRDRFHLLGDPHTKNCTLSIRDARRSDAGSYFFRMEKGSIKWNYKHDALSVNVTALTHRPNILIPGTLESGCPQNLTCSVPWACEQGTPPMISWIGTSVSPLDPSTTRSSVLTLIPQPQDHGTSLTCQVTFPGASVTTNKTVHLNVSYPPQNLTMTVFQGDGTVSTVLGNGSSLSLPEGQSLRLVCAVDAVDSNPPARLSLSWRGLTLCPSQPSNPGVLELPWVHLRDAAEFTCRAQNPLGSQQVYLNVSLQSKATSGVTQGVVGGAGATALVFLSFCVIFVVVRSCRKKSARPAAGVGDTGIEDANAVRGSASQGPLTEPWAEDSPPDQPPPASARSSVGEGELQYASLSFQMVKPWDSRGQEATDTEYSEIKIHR
T1 sequence (Q9Y336 other isoform, or with tags, fused parts or gaps mutant): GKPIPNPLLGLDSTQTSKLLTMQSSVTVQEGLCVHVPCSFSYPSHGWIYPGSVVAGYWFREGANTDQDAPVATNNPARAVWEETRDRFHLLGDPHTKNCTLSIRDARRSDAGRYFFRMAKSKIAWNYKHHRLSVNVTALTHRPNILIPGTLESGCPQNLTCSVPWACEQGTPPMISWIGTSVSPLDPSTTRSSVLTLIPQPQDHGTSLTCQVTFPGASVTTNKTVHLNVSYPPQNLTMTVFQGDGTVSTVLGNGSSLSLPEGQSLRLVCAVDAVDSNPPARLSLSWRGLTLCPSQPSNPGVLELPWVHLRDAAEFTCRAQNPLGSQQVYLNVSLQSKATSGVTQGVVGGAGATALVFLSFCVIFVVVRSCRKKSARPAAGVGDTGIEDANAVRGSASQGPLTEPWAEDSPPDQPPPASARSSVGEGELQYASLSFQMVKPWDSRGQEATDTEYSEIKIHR
T4 sequence (chain, as listed by the source limits assumed): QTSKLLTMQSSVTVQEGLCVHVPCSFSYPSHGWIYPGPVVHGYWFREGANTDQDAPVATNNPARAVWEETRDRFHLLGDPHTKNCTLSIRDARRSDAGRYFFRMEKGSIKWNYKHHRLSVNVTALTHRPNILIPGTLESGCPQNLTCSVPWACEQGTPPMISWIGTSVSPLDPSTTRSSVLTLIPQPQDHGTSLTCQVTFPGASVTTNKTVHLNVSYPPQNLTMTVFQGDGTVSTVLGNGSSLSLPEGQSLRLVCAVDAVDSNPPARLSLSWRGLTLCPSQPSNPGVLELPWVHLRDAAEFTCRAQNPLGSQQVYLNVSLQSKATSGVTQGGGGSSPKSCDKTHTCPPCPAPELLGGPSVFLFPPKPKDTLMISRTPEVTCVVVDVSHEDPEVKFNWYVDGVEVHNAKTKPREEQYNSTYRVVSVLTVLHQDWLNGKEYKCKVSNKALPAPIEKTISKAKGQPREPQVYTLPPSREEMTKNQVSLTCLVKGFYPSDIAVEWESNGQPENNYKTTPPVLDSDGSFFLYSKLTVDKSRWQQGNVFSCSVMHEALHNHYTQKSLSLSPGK
T2 sequence (Q9Y336 other isoform, or with tags, fused parts or gaps mutant): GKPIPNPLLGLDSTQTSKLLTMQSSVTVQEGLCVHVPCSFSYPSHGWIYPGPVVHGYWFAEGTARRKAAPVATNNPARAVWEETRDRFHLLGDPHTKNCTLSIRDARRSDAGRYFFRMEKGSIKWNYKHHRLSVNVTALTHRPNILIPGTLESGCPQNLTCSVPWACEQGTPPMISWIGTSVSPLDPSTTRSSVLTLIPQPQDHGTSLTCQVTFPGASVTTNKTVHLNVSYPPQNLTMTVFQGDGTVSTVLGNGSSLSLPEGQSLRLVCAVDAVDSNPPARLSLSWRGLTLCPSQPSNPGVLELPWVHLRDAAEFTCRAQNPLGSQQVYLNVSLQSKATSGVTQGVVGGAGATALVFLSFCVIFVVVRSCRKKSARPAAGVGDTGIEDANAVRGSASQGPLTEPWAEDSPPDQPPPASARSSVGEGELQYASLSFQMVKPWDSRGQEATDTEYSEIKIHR
T7 sequence (Q9Y336 other isoform, or with tags, fused parts or gaps mutant): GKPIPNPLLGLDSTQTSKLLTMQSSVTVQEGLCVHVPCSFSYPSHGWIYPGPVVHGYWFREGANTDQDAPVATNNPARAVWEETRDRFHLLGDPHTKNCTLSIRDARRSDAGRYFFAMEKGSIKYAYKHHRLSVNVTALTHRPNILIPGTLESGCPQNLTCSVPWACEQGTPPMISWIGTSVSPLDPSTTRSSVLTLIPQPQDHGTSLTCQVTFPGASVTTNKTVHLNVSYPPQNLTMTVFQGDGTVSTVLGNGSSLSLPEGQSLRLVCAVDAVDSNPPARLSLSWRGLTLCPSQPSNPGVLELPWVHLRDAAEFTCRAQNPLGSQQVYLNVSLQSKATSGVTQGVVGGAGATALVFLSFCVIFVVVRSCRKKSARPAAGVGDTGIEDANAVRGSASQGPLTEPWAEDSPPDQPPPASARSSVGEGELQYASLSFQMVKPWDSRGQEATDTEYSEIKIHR
T5 sequence (Q9Y336 other isoform, or with tags, fused parts or gaps mutant): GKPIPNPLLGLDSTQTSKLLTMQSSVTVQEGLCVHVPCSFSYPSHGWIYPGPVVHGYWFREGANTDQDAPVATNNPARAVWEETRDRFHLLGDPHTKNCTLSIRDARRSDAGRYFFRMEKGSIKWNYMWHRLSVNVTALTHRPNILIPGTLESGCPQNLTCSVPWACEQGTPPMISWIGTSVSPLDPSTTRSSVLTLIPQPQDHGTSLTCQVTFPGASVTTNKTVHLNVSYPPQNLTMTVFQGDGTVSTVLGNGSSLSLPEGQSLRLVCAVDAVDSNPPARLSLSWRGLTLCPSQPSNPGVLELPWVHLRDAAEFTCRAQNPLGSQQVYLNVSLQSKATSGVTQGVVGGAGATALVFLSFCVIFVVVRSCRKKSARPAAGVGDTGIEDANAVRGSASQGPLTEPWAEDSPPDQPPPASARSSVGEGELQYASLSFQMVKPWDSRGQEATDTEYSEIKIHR
T6 sequence (Q9Y336 other isoform, or with tags, fused parts or gaps mutant): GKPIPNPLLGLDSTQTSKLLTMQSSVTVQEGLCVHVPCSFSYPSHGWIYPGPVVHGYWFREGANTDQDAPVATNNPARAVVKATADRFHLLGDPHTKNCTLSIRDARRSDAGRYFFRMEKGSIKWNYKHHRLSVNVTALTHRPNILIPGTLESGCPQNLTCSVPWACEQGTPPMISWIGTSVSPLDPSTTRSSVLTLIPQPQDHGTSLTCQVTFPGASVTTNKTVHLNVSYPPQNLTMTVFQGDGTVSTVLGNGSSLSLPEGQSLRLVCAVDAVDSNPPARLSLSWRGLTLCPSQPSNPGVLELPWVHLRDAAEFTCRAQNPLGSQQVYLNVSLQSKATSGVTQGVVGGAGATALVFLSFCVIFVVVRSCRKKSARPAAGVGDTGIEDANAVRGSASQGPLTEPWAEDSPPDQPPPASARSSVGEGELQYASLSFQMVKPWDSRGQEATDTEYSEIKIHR
T8 sequence (Q9Y336 other isoform, or with tags, fused parts or gaps mutant): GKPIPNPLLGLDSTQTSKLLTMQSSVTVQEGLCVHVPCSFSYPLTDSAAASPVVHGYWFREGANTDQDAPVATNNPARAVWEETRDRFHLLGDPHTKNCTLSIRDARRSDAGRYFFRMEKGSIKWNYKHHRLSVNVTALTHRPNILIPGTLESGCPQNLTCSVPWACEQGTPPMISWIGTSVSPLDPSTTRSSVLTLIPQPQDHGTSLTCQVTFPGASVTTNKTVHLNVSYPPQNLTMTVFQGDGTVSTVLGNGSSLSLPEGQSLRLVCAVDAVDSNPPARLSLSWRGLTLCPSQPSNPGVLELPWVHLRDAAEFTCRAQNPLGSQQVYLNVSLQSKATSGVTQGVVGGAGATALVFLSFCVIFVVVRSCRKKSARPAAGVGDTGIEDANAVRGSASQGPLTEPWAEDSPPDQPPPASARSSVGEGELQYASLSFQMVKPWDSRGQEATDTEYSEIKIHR

| Binder | binding result [1] | binding result [2] | binding result [3] | Kd [4] | koff [4] | binding result [5] | binding result [6] | binding result [7] | binding result [8] | binding result [9] |
| --- | --- | --- | --- | --- | --- | --- | --- | --- | --- | --- |
| B1 | binds | binds | binds | 40 pM | 2.5e-05 s⁻¹ | no binding |  |  |  |  |
| B2 | binds | binds | binds | 370 pM | 0.00031 s⁻¹ | no binding |  |  |  |  |
| B3 |  | binds | binds | 4120 pM | 0.00011 s⁻¹ |  | binds | binds | no binding |  |
| B4 | binds |  | binds | 550 pM | 0.00043 s⁻¹ |  | binds | binds |  | no binding |
